Data from patent US12497461B2, “Human NTCP-binding antibody capable of inhibiting infection of hepatitis B virus (HBV) to human hepatocytes” (priority 2019, dated 2025).
Where “and” joins values, the source holds several entries; their conditions need not be identical. Equal values may be shown once.

Assays:
pseudo-HBV (HBV/NL) = test: Infection inhibitory activity test using pseudo-HBV with integrated NanoLuc gene (Example 1); type: cell-based, hepatitis B virus (HBV); conditions: pseudo-virus, FIG. 1A
Procedure: The culture supernatant of 61,500 hybridomas was allowed to react with B lymphoma cell line forcibly expressing hNTCP and a parent cell line, washed and stained with a fluorescence-labeled anti-mouse IgG antibody. Screening was carried out by FACS to obtain 700 hybridoma cell lines producing an antibody that binds to an NTCP. The positive-hybridoma culture supernatant was screened by an HBV inhibitory activity test using a pseudo-virus. […] Using the culture supernatant of each clone, the test was repeated. As is apparent from FIG. 1A, hybridoma clones producing an antibody, which lowers an HBV infection rate but not viability of cells, were obtained.
The clone-derived antibodies established were purified and the activities of them were checked again by a test for infection inhibitory activity using pseudo-HBV obtained by integrating a NanoLuc gene into the genome.

HBV = test: HBV-infection inhibition in human hepatocyte chimeric mouse, serum HBV-DNA; type: in vivo, human hepatocyte chimeric mouse (uPA/SCID); set-up: key to serum HBV DNA level, One week later / serum HBV DNA level, Two weeks later / serum HBV DNA level, Three weeks later / serum HBV DNA level, Four weeks later / serum HBV DNA level, Five weeks later: “—” indicates values below the limit of detection.; “<3.61” indicates values below the limit of quantitation but a specific signal detected indicating an amplification reaction of HBV
Procedure: Preparation of uPA/SCID mice and transplantation of human hepatocytes were carried out in accordance with the report (Tateno C. et al., Am. J. Pathol., 165: 901-912, 2004). To all mice, human hepatocytes taken from the same donor were transplanted. Twenty-three mice, which are obtained by replacing 90% or more of the liver tissue with human hepatocytes by transplantation, were used in the experiment. To these mice, human serum containing 10^3 copies of HBV was administered (inoculated) through the tail vein. One day before and two days after HBV inoculation, 2.0 mg of purified N6HB426-20 antibody was intravenously injected. On Day 7, 14, and 21 after the HBV inoculation, 1.0 mg of the same antibody was intraperitoneally injected. As a control experiment, the same dose of normal mouse IgG antibody (Normal Mouse IgG, Whole Molecule, Purified, FUJIFILM Wako Pure Chemical Corporation) was injected in the same manner. A single mouse died on Day 0 after administration was excluded from the experiment. Ten mice for each of the groups, in total, 20 mice, were used. After the HBV inoculation, the serum was collected every week. Note that, 3 mice were used for confirmation of infection and not administered with a drug.
For quantification of HBV-DNA, 10 μL of mouse serum was used. Mouse serum was diluted with 690 μL of PBS and DNA was extracted. The serum HBV-DNA level was measured by a real-time PCR method using cobas 6800 System (Roche Diagnostics KK, Tokyo, Japan). In this measurement method, the lower limit of quantification was 3.61 log copies/mL. Mouse serum (10 μL) was diluted 30 folds with PBS and bile acid was measured.

[1] = biological target: T1, epitope region-containing peptide fragment (AFPPEVIGPLFFFPLLYMIFQLGEG-biotin) (Homo sapiens, UniProt Q14973); test: Surface plasmon resonance assay (BIAcore) of antigen binding affinity; conditions: 25° C.; antibody immobilized on CM5 chip
T1 sequence (Q14973 273-297 limits assumed): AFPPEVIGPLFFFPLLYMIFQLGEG
Procedure: In short, a carboxymethylated dextran biosensor chip (CM5, BIAcore Inc.) was activated by N-ethyl-N′-(3-dimethylaminopropyl)-carbodiimide hydrochloride (EDC) and N-hydroxysuccinimide (NHS) in accordance with the provider's instruction. An anti-mouse IgG antibody was diluted with 10 mM sodium acetate (pH5.2) up to 30 μg/ml. The dilution was injected at a flow rate of 5 to 10 μl/minute such that the reaction unit (RU) of the protein bound became 9,000 to 14,000 RU. In contrast, an anti-human IgG antibody was diluted with 10 mM sodium acetate (pH5.0) up to 25 μg/ml. The diluted antibody was injected at a flow rate of 5 to 10 μl/minute such that the reaction unit (RU) of the protein bound became 9,000 to 14,000 RU. After injection of each of the anti IgG antibodies, 1 M ethanolamine was injected in order to block unreactive groups. For kinetic measurement, N6HB426 antibody diluted with a running buffer (HBS-P: 10 mM HEPES pH7.5, 150 mM NaCl, 0.005% NP40) up to 10 μg/ml was immobilized onto CM5 chip via the anti-mouse IgG antibody, in advance. To the chip, a solution of an epitope region-containing peptide fragment ([…]-biotin: SEQ ID NO: 24) diluted with the running buffers at different concentrations was added at 25° C. at a flow rate of 10 μl/minute for 2 minutes. In contrast, the recombinant N6HB426 human chimeric IgG4 antibody was diluted with the running buffer up to 10 μg/ml and then was immobilized onto a sensor chip (CM5) via the anti-human IgG antibody in advance. To the chip, a solution of an epitope region-containing peptide fragment diluted with the running buffers at different concentrations was added at 25° C. at a flow rate of 10 μl/minute for 2 minutes.
The refractive index of the solution varied in correlation to the mass of a chip surface changed when a peptide fragment molecule bound to N6HB426 antibody on the sensor chip, was monitored in real-time. Using simple one-to-one Langmuir binding model (BIAcore Evaluation software version 3.1) by fitting sensor grams of antigen-antibody association and dissociation at the same time, association rate (Ka) and dissociation rate (Kd) were calculated. A Kd/Ka ratio was calculated to obtain an equilibrium dissociation constant (KD).

[2] = system: HBV / NTCP double mutant (PE276, 277AA); test: HBV infection of cells expressing NTCP double mutant in the presence of antibody; type: cell-based, hepatitis B virus (HBV); conditions: FIG. 7
Description: To establish NTCP expression cells, HepG2 cells or Huh7 cells were infected with a lentiviral vector having a nucleic acid encoding a wild-type NTCP or each of NTCP mutants. Forty-eight hours after infection, the cells were subjected to an immunofluorescence assay or a viral infection assay.

[3] = system: HBV (Genotype C or Genotype D)

B1: N6HB426-20 antibody: anti-human NTCP monoclonal antibody from a sub-clone of N6HB426 hybridoma; VH SEQ ID NO: 3, VL SEQ ID NO: 4 (antibody, V domains shown)
VH: QVQLQQSGAELVKPGASVKLSCKASDFTFTEYTIHWIKQMSGQGLEWIGWFYPGSGDIKYSEKFKDKATLTADKSSSTVYMELNRLTSEDSAVYFCARHMRDFRGFYYGRFYFDYWGQGTTLTVSS
VL: EIVLTQSPAIMSASPGEKVTITCRASSSVSSSYLHWYQQKSGVSPKLWIYSTSNLASGVPARFSGSGSGTSYSLTINSVEAEDAATYYCQQYSGYRWTFGGGTTLEIKRA
modifications: N6HB426 antibody heavy chain variable region; N6HB426 antiibody light chain variable region
- HBV inhibitory activity of hybridoma culture supernatant (pseudo-HBV (HBV/NL)): comparable to preS1 peptide
- serum HBV-DNA in the 4th week after HBV inoculation (HBV; all of the 10 mice of the group): not detected
- serum HBV DNA level, Five weeks later (HBV; test group, individual mice, five weeks after HBV inoculation): — (8×) and <3.61 log copies/mL
- serum HBV DNA level, Four weeks later (HBV; test group, individual mice, four weeks after HBV inoculation): —
- serum HBV DNA level, One week later (HBV; test group, individual mice, one week after HBV inoculation): —
- serum HBV DNA level, Three weeks later (HBV; test group, individual mice, three weeks after HBV inoculation): —
- serum HBV DNA level, Two weeks later (HBV; test group, individual mice, two weeks after HBV inoculation): —
- Ka (1/Ms) association rate [1]: 821.2 M⁻¹ s⁻¹
- Kd (1/s) dissociation rate [1]: 3.19e-08 s⁻¹
- inhibition of HBV infection of cells expressing double mutant (PE276, 277AA) [2]: failed to be inhibited
- inhibitory activity on infection of normal human hepatocytes with HBV [3]: comparable to preS1
